From paper PMC4585930
One block for each substance: values may come before it.

Molecular target: GFP-CRN7 WT (UniProt Q55E54)
Test: pull-down, western blot band intensity
Conditions: read off a plot

Chain of UniProt Q55E54 (Q55E54 whole entry): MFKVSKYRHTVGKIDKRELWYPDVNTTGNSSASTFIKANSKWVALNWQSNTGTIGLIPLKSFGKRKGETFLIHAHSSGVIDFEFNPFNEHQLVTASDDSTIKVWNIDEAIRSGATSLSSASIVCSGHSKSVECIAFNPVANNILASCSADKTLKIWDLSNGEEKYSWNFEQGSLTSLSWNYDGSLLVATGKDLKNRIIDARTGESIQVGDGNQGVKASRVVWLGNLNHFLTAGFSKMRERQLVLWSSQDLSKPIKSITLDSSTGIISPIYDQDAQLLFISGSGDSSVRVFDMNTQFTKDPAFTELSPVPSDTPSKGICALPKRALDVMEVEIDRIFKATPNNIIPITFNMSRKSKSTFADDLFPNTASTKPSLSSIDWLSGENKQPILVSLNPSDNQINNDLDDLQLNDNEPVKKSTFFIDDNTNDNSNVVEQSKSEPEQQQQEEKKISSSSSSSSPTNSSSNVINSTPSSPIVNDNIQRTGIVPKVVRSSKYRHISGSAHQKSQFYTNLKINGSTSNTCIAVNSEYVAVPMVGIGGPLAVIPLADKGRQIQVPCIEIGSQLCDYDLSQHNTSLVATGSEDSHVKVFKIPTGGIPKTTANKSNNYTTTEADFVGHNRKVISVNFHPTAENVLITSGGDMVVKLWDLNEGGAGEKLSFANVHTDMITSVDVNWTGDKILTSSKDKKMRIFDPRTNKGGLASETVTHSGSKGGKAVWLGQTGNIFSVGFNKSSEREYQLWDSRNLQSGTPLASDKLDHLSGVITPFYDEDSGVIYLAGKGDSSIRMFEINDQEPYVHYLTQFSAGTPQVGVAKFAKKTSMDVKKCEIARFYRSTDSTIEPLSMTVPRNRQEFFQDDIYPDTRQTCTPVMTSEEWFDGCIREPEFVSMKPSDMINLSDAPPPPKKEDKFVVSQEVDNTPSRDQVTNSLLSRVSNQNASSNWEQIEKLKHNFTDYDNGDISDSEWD

Substance: GST-RacC (from UniProt P34149) DD to QQ (Mut5)
response (arbitrary units) (RacC Mut5 loaded with GDP, parent: est. 61): 51
response (arbitrary units) (RacC Mut5 loaded with GTPγS, parent: est. 39): 49

Substance: GST-RacC (from UniProt P34149) ED to KK (Mut1)
response (arbitrary units) (RacC Mut1 loaded with GDP, parent: est. 61): 52
response (arbitrary units) (RacC Mut1 loaded with GTPγS, parent: est. 39): 48

Substance: GST-RacC (from UniProt P34149) EE to KK (Mut4)
response (arbitrary units) (RacC Mut4 loaded with GDP, parent: est. 61): 54
response (arbitrary units) (RacC Mut4 loaded with GTPγS, parent: est. 39): 46

Other lines, results leading:

response (arbitrary units) (RacC Mut2 loaded with GDP, parent: est. 61): 57
response (arbitrary units) (RacC Mut2 loaded with GTPγS, parent: est. 39): 43
Substance: GST-RacC (from UniProt P34149) D to A (Mut2)

response (arbitrary units) (RacC Mut3 loaded with GDP, parent: est. 61): 64
response (arbitrary units) (RacC Mut3 loaded with GTPγS, parent: est. 39): 36
Substance: GST-RacC (from UniProt P34149) Y40K
